Test results as given in the nanobody polyreactivity screen of Harvey et al. (2022).

Test: yeast display, Sf9 membrane polyspecificity reagent, FACS + sequencing; frameworks hold sequencing errors
Summary of the method: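 A synthetic nanobody library was expressed on Saccharomyces cerevisiae BJ5465 by galactose induction for 36–48 hours. The library was stained for 1 hour at 4 °C with 10% biotinylated, detergent-solubilized Sf9 membrane reagent and enriched with streptavidin microbeads before FACS. Low and high (top ~1%) gates were set on anti-HA fluorescence for expression and streptavidin fluorescence for reagent binding, and each polyreactivity label reflects the gate of origin.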

Sequence	polyreactivity (PSR sort gate)
QDQLVESGGGLVQAGGSHRLSCAASGRNFNYNAMGWYRQAPGKERELVAAISGSGGRTYYADSVKGRFTISRDNAKNTVYLQMNSLKPEDTAVYYCAAAGYDSNGRYWGQGTLVTVSS	high polyreactivity
QDQLVESGGGLVQAGGSHRLSCAASGSIFYRNAMGWFRQAPGKERELVAAISARGGRTNYADSVKGRFTISRDNAKNTVYLQMTSLKPEDTAVYYCNTADSWYHRSQAYDYWGQGTQVTVSS	high polyreactivity
QDQLVESGGGLVQAGGSHRLSSAASGSILGAYAMGWYRQPPVKERELVAAISRNGGSTYYADSVKGRFTISRDNAKNTVYLQMNRLKPEDTAVYYCAAYYYDNEYDYWGQGTQVTVSS	high polyreactivity
QDQLVESGGGLVQAGGSLRFSCAPSGFTFTRNPLGCYRQAPGQEREFVARISSRGGSTYYADSVKGRYTISRDIAKNSVYLQMNSLTPEDTAVNYCARDPVGTNSARYNYWGQGTQVTVSS	high polyreactivity
QDQLVESGGGLVQAGGSLRFSCASSGRIFRSYGMGWYRQAPGKERELVARIRNRGGSTYAHSVKGRFTISRDNAKNSVYLQMNSLKPEDTAVYYCAAGAYRHSVFSYDYWGQGTQVTVSS	high polyreactivity
QDQLVESGGGLVQAGGSLRLICAASGITFFGYVMGWYRQAPGKERELVAAINSRGGNTYYADSVKGRFTSSRDNAKNTVYLQMNSLKPEDTAVYYCAASNGYQAVTYDYWGQGTQVTVSS	high polyreactivity
QDQLVESGGGLVQAGGSLRLRCAASGSILWYYAMGWYRQAPGKERELVASISYSGGSTYYADSVKGRFTISRDNAKNTVYLQMNSLKPEDTAVYYCNADTITYQGYDYGYWGQGTQVTVSS	low polyreactivity
QDQLVESGGGLVQAGGSLRLSCAASAFIFSSNAMGWYRQAPGKEREFVAAISFRGGTTYYADSVKGRFTISRDNAKNTVYLQMNSLKPEDTAVYYCNAVRWRSGRWWWYDYWGQGTQVTVSS	low polyreactivity
QDQLVESGGGLVQAGGSLRLSCAASALIFSLNAMGWYRQAPGTERELVAAISSDDSTYYADSVKGRFTISRDNAKNTVYLQMNSLKPEDTAVYYCAAVQLVPGYVDSNDYYWGQGTQVTVSS	low polyreactivity
QDQLVESGGGLVQAGGSLRLSCAASGFIFENYTLGWYRLAPGKERELVAAITSSGGSTYYADSVKGRFTISRDNAKNTVYLPLNSLNPDVTAVYYCNKRWFRDYDYWGQGTQVTVSS	high polyreactivity
QDQLVESGGGLVQAGGSLRLSCAASGFIFGRYAMGWYRQAPGKERELVATISRCGGSTYYADSVKGRFTISRDNAKKTVYLQMNSLKPEDTAVYYCAATYYQLFGTILHGYWGQGTQVTVSS	low polyreactivity
QDQLVESGGGLVQAGGSLRLSCAASGFIFLNYTMGWYRQAPGKERELVAAISNGSDRTYYADSVKGRFTISRDKAKNTVYLQMNSLTPEDTAVYYCAKDRDFSSPPTESGFDYWGQGTQVTVSS	low polyreactivity
QDQLVESGGGLVQAGGSLRLSCAASGFIFSSYAIGWYRQAPGKERELVAAITSGGSTNYADSVKGRFTLSRDNAKNTVYLQMNSLKPEDTAVYYCATVPGGSWFFHWWSTGGDDEYWGQGTQVTVSS	low polyreactivity
QDQLVESGGGLVQAGGSLRLSCAASGFIFVVYAMGWYTQAPGKERELVAAITYSGGSTYYADSVKGRFTISRDNAKNTVDLQMNSLKPEDTAVYYCAAPEHDREFDYWGQGTQVTVSS	low polyreactivity
QDQLVESGGGLVQAGGSLRLSCAASGFTFPVYAMGWYRQAPGKEWELVAAITRGGSTNYADSVKGRFTISRDNAKNTVYLQMNSLKPEDTAVYYCNADYAVAYHPDLGDYWGQGTQVTVSS	low polyreactivity
QDQLVESGGGLVQAGGSLRLSCAASGFTFRYYAMGWYRQAPGKEREFVAAITQSGGSTYYADSVKGRFTISRDNAKNTVYLQMNSLKPEDTAVYYCNTARVKYRWYNYWGQGTQVTVSS	high polyreactivity
QDQLVESGGGLVQAGGSLRLSCAASGFTFTRNAMGWYRQAPGKERELVAAISRGGSTNYADSVKGRFTISRDNAKNTVYLQMNSLKPEDTAVYYCAKVRTRGTPGVDYYYWGQGTQVTVSS	high polyreactivity
QDQLVESGGGLVQAGGSLRLSCAASGFTIDPYAMGWYRPAPGKERELVAGISWSGGSTYYADSVKGRFTISRDNAKNTVYLQMNSLKPEVTAVYYCARDYSWLTRGSDYDYWGQGTQVTVSS	low polyreactivity
QDQLVESGGGLVQAGGSLRLSCAASGFTIERYAMGWYRQAPGKERELVAVISTSGGSTYYADSVKGRFTISRDNGKNTVYLLMNSLKPEDTAVYYCAAPSVSQYSSKKYDYWGQGTQVTVSS	low polyreactivity
QDQLVESGGGLVQAGGSLRLSCAASGGIFPPNVMGWYRQAPGKERELVAAISRSGGSTYYADSVKGRFTFSRDNAMNTVYLQMNSLKPEDTAVYYCAAANTQRGFRYDYWGQGTQVTVSS	high polyreactivity
QDQLVESGGGLVQAGGSLRLSCAASGGTFGPNAMGWYRQSPGKERELVAAISASGGITYYADSVKGRFTISRDNAKNTVYLQMNSLKPEDTAVYYCAAAITWIYSQAAFKIVQYDYWGQGTQVTVSS	low polyreactivity
QDQLVESGGGLVQAGGSLRLSCAASGGTFWAYAMGWYRQAPGKERENVAAIRRSGRTYYADSVKGRITISRDNAKNTVYLQMNRLKPEDTAVDYCAKYGPTPGTLRDDYWGQGTQVTVSS	high polyreactivity

Sequence	polyreactivity (PSR sort gate)
QDQLVESGGGLVQAGGSLRLSCAASGIIFHFNDMGWYRQAPGKERELVAAITSGGSTNYADSVKGRFTISRDNAKNTLYLQMNSLKPEDTAVYYCAARRGLRLFAYRHGYWGQGTQVTVSS	low polyreactivity
QDQLVESGGGLVQAGGSLRLSCAASGIIVTYYAMGWYRQAPGKERELVAAISESGGITYYADSVKGRFTISRDNAKNTVYLQMISLKPEVTGVYYCNAEYWGYAWPYDYWGQGTQVTVSS	high polyreactivity
QDQLVESGGGLVQAGGSLRLSCAASGLIFPAYTMGWSRQAQGKERELVAAISRSGGSTYYADSVKGRFTISRDNAKNTVYLQMNSLKPEDTAVYYCAAYYSGGYDYWGLGTQVTVSS	high polyreactivity
QDQLVESGGGLVQAGGSLRLSCAASGLIVGDYAMGWYRQAPGKERELVAAITGSVTRTYYADSVKGRFTISRDNAKNTVYLQMNSLKPEDTAVYYCATRVHYIGFYDYDYWGQGTQVTVSS	low polyreactivity
QDQLVESGGGLVQAGGSLRLSCAASGLNFVRYAMGWYRQAPGKERELVATITWSGGTYYADSVKGRFTISRDNAKNTVYLQMNSLKPEDTAVSYCAADTPTPGLFYWFYPHRGYWGQGTQVTVSS	low polyreactivity
QDQLVESGGGLVQAGGSLRLSCAASGLTFPYYAMGWYRQAPGKERELVAAITWSGGTTDYADSVKGRFTISRDNAKNTVYLQMNSLKPEDTAVYYCAARFLWKGYYWGQGTQVTVSS	low polyreactivity
QDQLVESGGGLVQAGGSLRLSCAASGLTFQYNAMGWYRQAPRKERELVATISQSGGSTYYADSVKGRFTISRDNAKNTVYLQMNSLKREDTAVYYCAAYRAWTWRIRYDYWGQGTQVTVSS	low polyreactivity
QDQLVESGGGLVQAGGSLRLSCAASGLTIYHYAMGWYRQAPGKERELVADISSGGSTSYADSVKGRFTISRDNAKNTVYLQMNSLKPEDTAVYYCAADYTWERYHRQIFRLDYWGQGTQVTVSS	low polyreactivity
QDQLVESGGGLVQAGGSLRLSCAASGNTLAANAMGWYRQAPGKERELVAAITYSGGSTYYADSVKGRFTISRDNAKNTVYLQMSSLKPEDTSVYYCNAPYVFSAGFDYWGQGTQVTVSS	low polyreactivity
QDQLVESGGGLVQAGGSLRLSCAASGRFFKWYAMGWYRQAPGKEREFVAGISSSGTSTYYADSVKGRFTISRDNAKKTVSLQRNSLKPEDTAVYYCNKLGSTLDFGYWGQGTQVTVSS	high polyreactivity
QDQLVESGGGLVQAGGSLRLSCAASGRIFCSYAMGWYRQAPGKERELVAAISRRGGGTYYADSVKGRFTISRENAKNTVYLQMNSLKPEDTAFYYCAKDWYGRYYYWGQGTQVTVSS	high polyreactivity
QDQLVESGGGLVQAGGSLRLSCAASGRIFGFNAMGWYRQAPGKERELVAAISWRGGSTRYADSVKGRFTISRDNAKNTVYLQMNSLKPEDTAVYYCATPYADPGTVQYAGYNYWGQGTQVTVSS	high polyreactivity
QDQLVESGGGLVQAGGSLRLSCAASGRIFGINAMGWYIPAPGKERELVAAINWSGGSTYYADSVKGRFTISRDNAKNTVYLQMNSLKPEDTAVYYCATYQAGYYQSTYDYWGPGTQVTVSS	high polyreactivity
QDQLVESGGGLVQAGGSLRLSCAASGRIFGYYTAMGWYRQTPAKEREMVASITKSGGSTYYSDSVKGRFTITRDNAKNTVYLQKNCLKPEDTAVYYCAAAFNRYGTTSYWYRHYYWGQGTQVTVSS	high polyreactivity
QDQLVESGGGLVQAGGSLRLSCAASGRIFKHNAMGWYRQAPGKERELVATISIAGRTNYADSVKGRFTISRDNAKNTVYLQMNSLKPEDTAVYYCAASTFFIHTYDYWGQGTQVTVSS	low polyreactivity
QDQLVESGGGLVQAGGSLRLSCAASGRIFKYNAMGWYRQAPRKERELVAAITRGGSTNYADSVKGRFTISRDNAKNTVYFQLNSLKPEDTEVYYCAALRSRYGRDMDSWGQGTQVSVSS	high polyreactivity
QDQLVESGGGLVQAGGSLRLSCAASGRIFRTYAMGWYRQAPRQERELVAAIRSGGSTKYADSVKGRFTISRDNAKNTVYLQMKSLKPEDTAVYYCAAAVLGRYSAGDGYWGQGTQVTVSS	low polyreactivity
QDQLVESGGGLVQAGGSLRLSCAASGRIFSIYAMGWYRQAPGKERELVAAITRGGRTIYADSVKGRFTISRDNAKNTVYLQMNSLKPEDTAVYYCAARRIDGVVKPYDYWGQGTQVTVSS	low polyreactivity
QDQLVESGGGLVQAGGSLRLSCAASGRIFTQNRMGWYRQAPGKERELVAVITSSGGSTYYADSVKGRFTISRDNAKNTVYLQMNSLKPEDTAVYYCAAQLVRYVGYYRFDYWGQGTQVTVSS	low polyreactivity
QDQLVESGGGLVQAGGSLRLSCAASGRIFVVYAMGCYRQAPGKERELVAAITGGGRTNYADSVKGRFTISRENAKNTVYLQMKSLKPEDTAVYYCAAGTRSDARRYFYWGQGTQVTVSS	low polyreactivity
QDQLVESGGGLVQAGGSLRLSCAASGRIFYLNAMGWYRQAPGKERELVAAINTSGDSTYYADSVKGRFTISRDIAKNTVYLQMNSLKQEDTAVYYCAAYVIGPDQFIYDYWGQGTQVTVSS	low polyreactivity
